Experimental data reported in the supplement of paper PMC10567573.

B1: ATL3 (parent)
chain: HFKKTKKMGGKDFSFRYQQELEEE

Variants of: B1
Assay: protein stability index of a GFP-peptide fusion (GPS, HEK-293T) (PSI 1-6); higher = more stable
Conditions: c terminus: a fixed tail appended
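Further: lentivirally expressed fusions sorted by FACS into six bins by GFP to DsRed ratio, PSI derived from sequencing read proportions per bin multiplied by bin number.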

Protein stability index: each site, then its substitutions
R16: G 4.22, M 2.84, A 2.98, T 4.47, F 3.07, S 4.39, Y 2.18, C 3.28, W 2.11, P 4.96, E 5.18, N 3.69, D 5.02, V 2.54, Q 3.08, L 2.45, K 2.51, H 3.09
K3: M 2.71, F 2.41, L 1.98, Y 2.75, T 1.04, N 2.18, E 1.43, W 1.02, P 1.9, S 1.79, Q 3.21, I 1.89, H 1.73, A 2.06, V 2.4, G 1.86, R 2.42, D 2.34
S14: H 4.29, V 2.17, M 2.91, E 1.53, N 4.1, D 4.48, C 1.08, Q 1.93, P 3.12, G 2.54, Y 3.61, T 3.24, W 4.01, K 3.31, L 2.35, F 3.85
G9: T 2.11, F 2.64, Y 1.74, P 2.05, W 1.88, C 2.61, S 1.75, H 1.84, A 1.41, V 1.82, M 1.28, I 2.48, E 1.77, D 2.23, Q 1.96, L 2.26, R 1.77, N 1.99, K 2.7
Q18: A 2, L 2.64, P 4.2, D 4.65, G 1.87, E 2.73, R 1.44, T 2.27, H 2.34, K 2.09, I 1.85, N 2.54
G10: T 1.61, P 1.3, H 2.19, M 2.71, E 5.39, L 2.07, R 2.03, K 2.56, Q 1.86, D 1.8, A 1.75, V 2.04, I 1.68, W 1.7, S 3.53, F 1.82, C 1.56, Y 1.79
K4: W 1.61, M 2.26, N 2.26, Y 1.23, C 2.55, Q 1.75, L 2.6, G 2.67, P 1.82, D 3.67, T 2.1, V 1.62, S 3.01, E 1.6, I 1.66, H 2.1, A 2.72
T5: W 3.29, N 2.58, A 1.5, R 1.31, Y 1.75, L 2.53, V 2.75, M 2.57, H 1.83, G 1.35, Q 1.8, P 1.78, S 2.26, F 2.44, I 2.17, C 2.37, K 2.22
F15: D 1.76, C 3.07, M 2.39, T 2.24, K 3.04, G 2.22, N 1.66, L 2.46, A 2.54, Y 1.54, P 4.31, R 1.83, E 1.39, I 1.42, H 2.71
K7: R 1.65, C 2.44, L 2.1, M 2.88, N 2.11, A 2.02, T 1.9, Q 2.54, P 2.56, S 2.04, H 2.32, G 1.8, I 2.9, V 1.84
D12: P 1.99, I 2.43, R 1.96
